Reference: patent US20070037246A1 (LIFESENSORS, published 2007)

Biological target: 6xHis-CTHS-GFP fusion protein (yeast (SUMO/Smt3 part))
Test: mixing of purified proteins in solution, complex shown by Ulp1 cleavage (FIG. 7A)
Method: FIG. 7A depicts the experimental results obtained when combining NTHS and CTHS-GFP in solution, resulting in assembly and formation of a cleavable complex. 6xHis-CTHS-GFP fusion protein purified from E. coli was incubated with SUMO hydrolase Ulp1 and 6xHis-NTHS (lanes […]), with 6xHis-NTHS (lanes 1-3) or Ulp1 (lanes 7-9). Release of free GFP can be observed only when all the components are present in the reaction mix. […] Furthermore, purification tags such as, but not limited to 6xHis, GST, MBP, a sequence facilitating covalent coupling to solid support such as Cys residue, may be attached to either the amino- and/or carboxy-termini of NTHS.

B1: 6xHis tagged NTHS (other)
chain: MGHHHHHHGSDSEVNQEAKPEVKPEVKPETHINLKVSDGSSEIFFKIKKTTPLRRLMEAFAK
notes: Purified from E. coli and used in solution in the reconstitution and cleavage experiments; also called 6xHis-NTHS
binding result: binds
